Data: US20180291110A1 (Hoffmann-La Roche, published 2018)
Residue numbers refer to the chain shown, from its start.

B1: 2/99 VH2/VL8 (antibody, V domains shown)
VH: EVQLVETGGGLIQPGGSLRLSCAASGFSLSSYAMSWVRQAPGKGLEWVGYIWSGGSTDYADSVKGRFTISRDNSKNTLYLQMNSLRAEDTAVYYCARRYGTSYPDYGDANGFDPWGQGTLVTVSS
VL: AYQLTQSPSSLSASVGDRVTITCRASQSISSYLSWYQQKPGKAPKLLIYRASTLASGVPSRFSGSGSGTDFTLTISSLQPEDFATYYCQQSYSSSNVDNTFGGGTKVEIK
B2: 2/99 VH19/VL8 (antibody, V domains shown)
VH: QSMQESGPGLVKPSQTLSLTCTVSGFSLSSYAMSWIRQHPGKGLEWIGYIWSGGSTDYAPSLKSRVTISVDTSKNQFSLKLSSVTAADTAVYYCARRYGTSYPDYGDANGFDPWGQGTLVTVSS
VL: B1 VL
B3: 2/99 VH7/VL10 (antibody, V domains shown)
VH: QQLVETGGGLIQPGGSLRLSCAASGFSLSSYAMSWVRQAPGKGLEWIGYIWSGGSTDYASWAKGRFTISRDNSKNTLYLQMNSLRAEDTAVYYCARRYGTSYPDYGDANGFDPWGQGTLVTVSS
VL: B1 VL with A1D, Y2I, L4M, G66R
B4: 2/99 VH7/VL8 (antibody, V domains shown)
VH: B3 VH
VL: B1 VL
B5: 2/99 VH11/VL8 (antibody, V domains shown)
VH: B3 VH with V4L, T6S, I11V, I47V, S60D, W61S, A62V
VL: B1 VL
B6: 2/99 VH1/VL10 (antibody, V domains shown)
VH: B3 VH with Q1V, I47V, S60D, W61S, A62V
VL: B1 VL with A1D, Y2I, L4M, G66R
B7: 2/99 VH6/VL10 (antibody, V domains shown)
VH: B3 VH with S60D, W61S, A62V
VL: B1 VL with A1D, Y2I, L4M, G66R
B8: 2/99 VH22/VL8 (antibody, V domains shown)
VH: B2 VH with I36V, P60S, S61W, L62A, F77V
VL: B1 VL
B9: 2/99 VH16/VL8 (antibody, V domains shown)
VH: B2 VH with S2Q, M3L, Q15E, I36V, H39P, A59N, F77V, Q116P
VL: B1 VL
B10: 2/99 VH15/VL8 (antibody, V domains shown)
VH: B2 VH with S2Q, M3L, Q15E, I36V, H39P, A59N, F77V
VL: B1 VL
B11: 2/99 VH23-DANG/VL8 (antibody, V domains shown)
VH: QSMQESGPGLVKPSQTLSLTCTVSGFSLSSYAMSWIRQHPGKGLEWIGYIWSGGSTDYASWAKSRVTISKTSTTVSLKLSSVTAADTAVYYCARRYGTSYPDYGDANGFDPWGQGTLVTVSS
VL: B1 VL
B12: 2/99 VH13/VL8 (antibody, V domains shown)
VH: QVQLQESGPGLVKPSETLSLTCTVSGFSLSSYAMSWIRQPPGKGLEWIGYIWSGGSTDYNPSLKSRVTISVDTSKNQVSLKLSSVTAADTAVYYCARRYGTSYPDYGDANGFDPWGQGTLVTVSS
VL: B1 VL
B13: 2/99 VH17/VL8 (antibody, V domains shown)
VH: B2 VH with S2Q, M3L, Q15E, I36V, H39P, A59N, V70K, F77V, Q116P
VL: B1 VL
B14: 2/99 VH18/VL8 (antibody, V domains shown)
VH: B12 VH with E16Q, P40H, N60A, V78F
VL: B1 VL
B15: 2/99 VH5/VL10 (antibody, V domains shown)
VH: B3 VH with Q2S, L3M, V4E, I47V, S60D, W61S, A62V, Q116P
VL: B1 VL with A1D, Y2I, L4M, G66R
B16: 2/99 VH20/VL8 (antibody, V domains shown)
VH: B2 VH with F77V
VL: B1 VL
B17: 2/99 VH9/VL8 (antibody, V domains shown)
VH: B3 VH with V4L, T6S, I11V, S27T, L28F, I47V, S60D, W61S, A62V, R96K
VL: B1 VL
B18: 2/99 VH2/VL10 (antibody, V domains shown)
VH: B1 VH
VL: B1 VL with A1D, Y2I, L4M, G66R
B19: 2/99 VH6/VL8 (antibody, V domains shown)
VH: B3 VH with S60D, W61S, A62V
VL: B1 VL
B20: 2/99 VH5/VL8 (antibody, V domains shown)
VH: B3 VH with Q2S, L3M, V4E, I47V, S60D, W61S, A62V, Q116P
VL: B1 VL
B21: 2/99 VH12/VL8 (antibody, V domains shown)
VH: B12 VH with V78F
VL: B1 VL
B22: 2/99 VH8/VL8 (antibody, V domains shown)
VH: QQLVETGGGLIQPGGSLRLSCAASGFSLSSYAMSWVRQAPGKGLEWIGYIWSGGSTDYASWAKGRFTISKTSTTLYLQMNSLRAEDTAVYYCARRYGTSYPDYGDANGFDPWGQGTLVTVSS
VL: B1 VL
B23: 2/99 VH21/VL8 (antibody, V domains shown)
VH: B2 VH with P60S, S61W, L62A, F77V
VL: B1 VL
B24: 2/99 VH0(rb)/VL9-NYA (antibody, V domains shown)
VH: QSMEESGGRLVTPGTPLTLTCTVSGFSLSSYAMSWVRQAPGKGLEWIGYIWSGGSTDYASWAKGRFTISKTSTTVDLKITSPTTEDTATYFCARRYGTSYPDYGDANGFDPWGPGTLVTVSS
VL: AIQLTQSPSSLSASVGDRVTITCRASQSISSYLAWYQQKPGKAPKLLIYRASTLASGVPSRFSGSGSGTDFTLTISSLQPEDFATYYCQQNYASSNVDNTFGGGTKVEI

molecular target: T1, human transferrin receptor (recombinant, for surface plasmon resonance) (human, UniProt P02786 89-760); experiment: SPR 25C
T1 construct: also called huTfR; human transferrin receptor-biotinylated
T1 sequence (P02786 89-760 limits assumed): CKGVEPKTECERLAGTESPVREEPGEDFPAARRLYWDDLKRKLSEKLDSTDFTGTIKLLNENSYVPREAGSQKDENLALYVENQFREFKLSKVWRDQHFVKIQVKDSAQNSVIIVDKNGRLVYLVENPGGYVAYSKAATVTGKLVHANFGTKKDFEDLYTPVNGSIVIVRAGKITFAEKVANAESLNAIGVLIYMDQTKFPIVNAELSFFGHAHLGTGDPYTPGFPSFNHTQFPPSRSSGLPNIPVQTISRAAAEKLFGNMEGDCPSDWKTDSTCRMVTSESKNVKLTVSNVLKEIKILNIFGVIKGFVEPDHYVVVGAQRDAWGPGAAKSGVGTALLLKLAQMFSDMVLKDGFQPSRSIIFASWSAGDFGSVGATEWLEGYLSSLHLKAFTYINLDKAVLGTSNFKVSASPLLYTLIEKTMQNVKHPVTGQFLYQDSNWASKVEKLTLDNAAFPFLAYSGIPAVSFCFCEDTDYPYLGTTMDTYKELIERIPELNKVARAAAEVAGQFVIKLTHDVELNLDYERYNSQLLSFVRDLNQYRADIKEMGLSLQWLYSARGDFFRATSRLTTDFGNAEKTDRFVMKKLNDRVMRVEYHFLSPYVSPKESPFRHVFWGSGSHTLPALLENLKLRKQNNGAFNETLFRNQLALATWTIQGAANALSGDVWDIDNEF

Point of comparison: B21, koff 0.00531 s⁻¹. Against it:
- B1 — within 1.5-fold, 0.00394 s⁻¹
- B2 — within 1.5-fold, 0.00671 s⁻¹
- B3 — 2-fold lower, 0.00264 s⁻¹
- B4 — 3.1-fold lower, 0.00172 s⁻¹
- B5 — within 1.5-fold, 0.00552 s⁻¹
- B6 — within 1.5-fold, 0.00677 s⁻¹
- B7 — within 1.5-fold, 0.00455 s⁻¹
- B8 — 3.2-fold lower, 0.00165 s⁻¹
- B9 — 2.7-fold lower, 0.00197 s⁻¹
- B10 — 2.5-fold lower, 0.00209 s⁻¹
- B11 — 5.6-fold lower, 0.000941 s⁻¹
- B12 — 2.1-fold lower, 0.00247 s⁻¹
- B13 — 4.8-fold lower, 0.00111 s⁻¹
- B14 — within 1.5-fold, 0.00677 s⁻¹
- B15 — within 1.5-fold, 0.00653 s⁻¹
- B16 — within 1.5-fold, 0.00658 s⁻¹
- B17 — within 1.5-fold, 0.00523 s⁻¹
- B18 — within 1.5-fold, 0.00649 s⁻¹
- B19 — 1.8-fold lower, 0.00301 s⁻¹
- B20 — within 1.5-fold, 0.00378 s⁻¹
- B22 — 4.6-fold lower, 0.00116 s⁻¹
- B23 — 3.1-fold lower, 0.00174 s⁻¹
- B24 — 3.8-fold lower, 0.00141 s⁻¹
